EC80 data for ten molecules are collected here from article PMC9798004 (Frontiers in Psychiatry, 2022).

Common to all, as to test: PathHunter β-arrestin assay
Holding throughout (format): cell-based

The target in one test is T1, MRGPRX1 (Homo sapiens, UniProt Q96LB2).
T1 construct: purchased Eurofins DiscoverX (PathHunter gpcrMAX)
As to conditions: screen, control agonist; CHO, 37C, 2HR.

The next test deals with T2, MRGPRX2 (Homo sapiens, UniProt Q96LB1).
T2 sequence (Q96LB1 1-330): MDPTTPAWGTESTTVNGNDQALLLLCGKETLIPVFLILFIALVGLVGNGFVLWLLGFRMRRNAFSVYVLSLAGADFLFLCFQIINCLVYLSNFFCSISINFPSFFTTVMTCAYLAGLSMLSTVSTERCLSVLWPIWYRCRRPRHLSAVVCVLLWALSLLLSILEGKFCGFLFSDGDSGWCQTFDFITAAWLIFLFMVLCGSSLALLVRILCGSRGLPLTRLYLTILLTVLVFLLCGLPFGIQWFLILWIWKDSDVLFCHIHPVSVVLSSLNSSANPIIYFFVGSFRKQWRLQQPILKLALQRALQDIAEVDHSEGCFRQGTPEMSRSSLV
Conditions: control agonist. The protocol: (§1) Follow up experiments were prioritized based on the difference between S/N and CoV. Targets with a >5-fold difference between S/N and CoV were investigated for their potential contribution to the AMB-FUBINACA toxidrome with 10-point concentration-response curves generated in technical replicate (range 1.5–30 μM) using the EC80 of the relevant agonist, where applicable in antagonist mode. Simultaneous agonist and antagonist curves were run in parallel to ensure reliability of the assay (see Supplementary Table 2), with both RC50 and signal to background aligning with historical averages, and Z' >0.5. RC50 was estimated using a four-parameter fit (CBIS Data Analysis Suite, ChemInnovation, San Diego, CA) on normalized data.

For a further test, the target named is T3, GLP2R (Homo sapiens, UniProt O95838).
T3 sequence (O95838 1-553): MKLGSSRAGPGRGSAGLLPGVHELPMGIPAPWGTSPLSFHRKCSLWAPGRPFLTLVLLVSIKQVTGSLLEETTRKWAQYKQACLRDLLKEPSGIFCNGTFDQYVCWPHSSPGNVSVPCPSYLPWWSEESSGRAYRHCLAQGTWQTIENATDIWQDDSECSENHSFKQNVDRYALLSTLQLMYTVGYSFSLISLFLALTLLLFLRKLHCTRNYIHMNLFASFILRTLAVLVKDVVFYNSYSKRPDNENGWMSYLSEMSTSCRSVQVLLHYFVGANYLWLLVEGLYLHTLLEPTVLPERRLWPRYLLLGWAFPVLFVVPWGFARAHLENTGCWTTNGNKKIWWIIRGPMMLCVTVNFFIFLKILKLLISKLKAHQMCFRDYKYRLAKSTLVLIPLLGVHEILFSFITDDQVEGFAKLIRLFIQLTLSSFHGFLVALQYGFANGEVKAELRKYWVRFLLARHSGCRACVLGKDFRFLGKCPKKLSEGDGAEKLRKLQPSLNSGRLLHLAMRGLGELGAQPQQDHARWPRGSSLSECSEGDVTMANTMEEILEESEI
Conditions: control agonist. The protocol:
as §1

The next test has as its target T4, GRPR (Homo sapiens, UniProt P30550).
T4 construct: purchased Eurofins DiscoverX (PathHunter gpcrMAX)
As to conditions: control agonist. Here is the method: as §1

The next test has as its target T5, MCHR2 (Homo sapiens, UniProt Q969V1).
T5 construct: purchased Eurofins DiscoverX (PathHunter gpcrMAX)
Conditions: screen, control agonist; U2OS, 37C, 2HR.

The target of the next test is T6, MLNR (Homo sapiens, UniProt O43193).
T6 construct: purchased Eurofins DiscoverX (PathHunter gpcrMAX)
T6 sequence (O43193 whole entry): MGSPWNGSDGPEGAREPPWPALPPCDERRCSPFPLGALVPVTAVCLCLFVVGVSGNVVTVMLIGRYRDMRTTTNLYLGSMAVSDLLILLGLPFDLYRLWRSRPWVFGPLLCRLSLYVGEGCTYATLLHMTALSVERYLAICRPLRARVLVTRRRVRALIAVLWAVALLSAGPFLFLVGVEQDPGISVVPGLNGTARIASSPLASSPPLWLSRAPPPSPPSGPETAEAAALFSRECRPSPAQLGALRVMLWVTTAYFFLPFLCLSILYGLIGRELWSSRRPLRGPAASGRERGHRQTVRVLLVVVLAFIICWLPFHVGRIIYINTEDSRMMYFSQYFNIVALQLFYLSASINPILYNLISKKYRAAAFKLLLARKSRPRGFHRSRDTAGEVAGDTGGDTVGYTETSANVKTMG
As to conditions: screen, control agonist; CHO, 37C, 2HR.

In the next test the target is T7, NMU1R (Homo sapiens, UniProt Q9HB89).
T7 construct: purchased Eurofins DiscoverX (PathHunter gpcrMAX)
T7 sequence (Q9HB89 1-426): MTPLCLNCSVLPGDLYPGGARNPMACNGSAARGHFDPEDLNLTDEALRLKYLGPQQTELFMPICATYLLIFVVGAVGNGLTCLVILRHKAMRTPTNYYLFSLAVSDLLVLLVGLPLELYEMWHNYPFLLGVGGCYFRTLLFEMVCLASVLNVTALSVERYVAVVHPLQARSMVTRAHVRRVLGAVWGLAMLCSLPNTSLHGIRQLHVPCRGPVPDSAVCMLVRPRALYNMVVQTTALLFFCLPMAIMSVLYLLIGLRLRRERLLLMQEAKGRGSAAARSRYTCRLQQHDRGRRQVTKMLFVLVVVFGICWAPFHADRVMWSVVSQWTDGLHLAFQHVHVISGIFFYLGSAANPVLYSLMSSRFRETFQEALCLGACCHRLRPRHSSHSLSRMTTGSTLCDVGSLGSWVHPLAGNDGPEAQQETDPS
Conditions: screen, control agonist; U2OS, 37C, 2HR.

The next test concerns the target T8, NPBWR2 (Homo sapiens, UniProt P48146).
T8 construct: purchased Eurofins DiscoverX (PathHunter gpcrMAX)
As to conditions: screen, control agonist; CHO, 37C, 2HR.

For another test, the target named is T9, NPBWR1 (Homo sapiens, UniProt P48145).
T9 construct: purchased Eurofins DiscoverX (PathHunter gpcrMAX)
T9 sequence (P48145 1-328): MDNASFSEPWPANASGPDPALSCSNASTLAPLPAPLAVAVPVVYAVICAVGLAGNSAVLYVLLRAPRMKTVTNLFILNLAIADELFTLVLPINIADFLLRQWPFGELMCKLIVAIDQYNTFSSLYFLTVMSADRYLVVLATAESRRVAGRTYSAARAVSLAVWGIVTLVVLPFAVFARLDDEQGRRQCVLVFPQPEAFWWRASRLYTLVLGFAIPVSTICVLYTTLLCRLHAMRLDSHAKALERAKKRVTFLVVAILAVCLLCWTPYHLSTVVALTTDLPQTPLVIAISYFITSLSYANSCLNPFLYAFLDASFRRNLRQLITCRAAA
Conditions: screen, control agonist; CHO, RT, 2HR.

The target in the next test is T10, NPFFR1 (Homo sapiens, UniProt Q9GZQ6).
T10 construct: purchased Eurofins DiscoverX (PathHunter gpcrMAX)
T10 sequence (Q9GZQ6 whole entry): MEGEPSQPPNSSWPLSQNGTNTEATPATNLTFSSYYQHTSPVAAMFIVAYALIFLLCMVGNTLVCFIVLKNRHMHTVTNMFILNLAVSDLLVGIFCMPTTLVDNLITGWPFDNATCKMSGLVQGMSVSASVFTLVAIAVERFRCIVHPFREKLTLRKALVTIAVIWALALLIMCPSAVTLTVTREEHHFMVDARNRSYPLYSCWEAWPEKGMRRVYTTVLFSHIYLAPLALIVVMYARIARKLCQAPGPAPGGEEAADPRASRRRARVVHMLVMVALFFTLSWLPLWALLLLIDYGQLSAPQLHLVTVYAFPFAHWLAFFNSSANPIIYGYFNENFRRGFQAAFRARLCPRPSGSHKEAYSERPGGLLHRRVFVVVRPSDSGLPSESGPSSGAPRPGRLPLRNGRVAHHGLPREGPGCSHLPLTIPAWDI
As to conditions: screen, control agonist; CHO, 37C, 2HR.

The target in the next test is T11, CCR10 (Homo sapiens, UniProt P46092).
T11 sequence (P46092 1-362): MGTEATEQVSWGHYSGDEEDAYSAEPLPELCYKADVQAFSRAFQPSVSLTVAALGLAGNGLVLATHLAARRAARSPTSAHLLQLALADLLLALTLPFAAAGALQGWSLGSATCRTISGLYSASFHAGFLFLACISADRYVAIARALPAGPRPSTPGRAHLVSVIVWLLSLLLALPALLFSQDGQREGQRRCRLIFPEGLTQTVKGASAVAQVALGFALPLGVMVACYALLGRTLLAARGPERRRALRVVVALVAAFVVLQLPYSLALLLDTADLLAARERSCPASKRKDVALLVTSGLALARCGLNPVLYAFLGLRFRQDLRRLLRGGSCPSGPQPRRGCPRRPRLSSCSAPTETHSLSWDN
As to conditions: control agonist. The protocol: as §1

[1] abbreviates: follow-up concentration-response assays.

No end group written: not given here.

T4 sequence (P30550 whole entry): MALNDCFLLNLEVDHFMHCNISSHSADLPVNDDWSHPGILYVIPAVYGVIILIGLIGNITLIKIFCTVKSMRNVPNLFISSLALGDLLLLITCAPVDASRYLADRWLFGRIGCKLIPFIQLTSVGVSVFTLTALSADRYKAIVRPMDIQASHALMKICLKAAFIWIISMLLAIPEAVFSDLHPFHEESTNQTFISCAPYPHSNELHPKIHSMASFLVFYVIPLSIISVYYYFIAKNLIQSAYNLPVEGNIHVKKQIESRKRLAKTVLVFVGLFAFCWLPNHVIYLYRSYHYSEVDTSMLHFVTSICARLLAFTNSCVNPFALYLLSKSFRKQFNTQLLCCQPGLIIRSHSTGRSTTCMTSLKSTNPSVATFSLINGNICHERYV
T8 sequence (P48146 whole entry): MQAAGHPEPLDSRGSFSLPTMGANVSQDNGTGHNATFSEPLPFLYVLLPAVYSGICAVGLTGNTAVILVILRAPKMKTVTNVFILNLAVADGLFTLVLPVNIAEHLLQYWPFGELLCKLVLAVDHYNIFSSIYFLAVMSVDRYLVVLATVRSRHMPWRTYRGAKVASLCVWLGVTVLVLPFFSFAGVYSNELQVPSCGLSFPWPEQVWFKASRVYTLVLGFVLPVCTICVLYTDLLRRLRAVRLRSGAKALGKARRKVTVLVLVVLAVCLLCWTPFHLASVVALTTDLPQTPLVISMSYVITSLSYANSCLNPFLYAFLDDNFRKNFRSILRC
T1 sequence (Q96LB2 whole entry): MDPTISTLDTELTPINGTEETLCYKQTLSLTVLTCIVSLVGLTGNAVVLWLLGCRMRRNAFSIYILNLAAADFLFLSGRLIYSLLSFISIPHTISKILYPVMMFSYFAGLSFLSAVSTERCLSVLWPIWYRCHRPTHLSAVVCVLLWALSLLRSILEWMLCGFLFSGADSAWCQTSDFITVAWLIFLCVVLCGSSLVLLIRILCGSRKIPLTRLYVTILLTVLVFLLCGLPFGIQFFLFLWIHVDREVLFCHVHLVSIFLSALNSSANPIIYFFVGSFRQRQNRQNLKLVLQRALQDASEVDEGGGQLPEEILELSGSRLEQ
T5 sequence (Q969V1 whole entry): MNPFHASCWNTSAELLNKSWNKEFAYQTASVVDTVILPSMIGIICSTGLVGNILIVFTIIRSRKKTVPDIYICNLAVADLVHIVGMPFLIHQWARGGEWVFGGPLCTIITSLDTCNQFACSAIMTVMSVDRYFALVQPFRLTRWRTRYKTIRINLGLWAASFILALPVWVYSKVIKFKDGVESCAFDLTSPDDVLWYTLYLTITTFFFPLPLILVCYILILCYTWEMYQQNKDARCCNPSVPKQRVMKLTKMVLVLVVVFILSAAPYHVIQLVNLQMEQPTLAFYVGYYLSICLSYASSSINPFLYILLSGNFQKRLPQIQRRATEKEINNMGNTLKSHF

As a reminder, the EC80 is the concentration needed for an effect of 80%. A low value points to an effect from little substance. BAM(8-22) gave an EC80 on MRGPRX1 of 8580 nM.
Consider “Cortistatin 14 (PCKNFFWKTFSSCK; ends and bridges not checked; cysteine pairing not given here; UniProt Q62949 99-112, looked up) [control agonist]”, for which the EC80 in the test with MRGPRX2 (setting [1]) stood at 737.5 nM; in the test with MRGPRX2 (screen, CHO, 37C, 2HR), 738 nM.
For GLP II (1-33), the 80% effect concentration (EC80) was found to be 2.96 nM with GLP2R (setting [1]) and 8.88 nM with GLP2R (screen, CHO, 37C, 2HR).
Consider “GRP: control agonist for GRPR (VPLPAGGGTVLTKMYPRGNHWAVGHLM; not fully specified (C-terminus); UniProt P07492 24-50, looked up)”, for which the EC80 with GRPR (setting [1]) was found to be 1.95 nM; in the test with GRPR (screen, U20S, 37C, 2HR), 5.85 nM.
For “MCH: control agonist for MCHR1 and MCHR2”, the EC80 in the test with MCHR2 was 59.3 nM.
On to Motilin, for which the EC80 with MLNR turned out to be 5.69 nM.
“Neuromedin U-25 (FRVDEEFQSPFASQSRGYFLFRPRN; ends and bridges not checked; UniProt P48645 142-166, looked up) [control agonist]” displayed an EC80 in the test with NMU1R of 3.63 nM.
As to “Neuropeptide W23 (WYKHVASPRYHTVGRAAGLLMGL; Neuropeptide W-23; UniProt Q8N729 33-55, looked up) [control agonist]”, the EC80 in the test with NPBWR2 is 4.04 nM; in the test with NPBWR1, 8.1 nM.
Regarding RFRP-3, the 80% effect concentration (EC80) in the test with NPFFR1 amounted to 148 nM.

B1: CCL27: control agonist (protein, UniProt Q9Y4X3 25-112, looked up)
C-C motif chemokine 27: FLLPPSTACCTQLYRKPLSDKLLRKVIQVELQEADGDCHLQAFVLHLAQRSICIHPQNPSLSQWFEHQERKLHGTLPKLNFGMLRKMG
Consider B1, for which the EC80 with CCR10 (setting [1]) was 90.49 nM; in the test with CCR10 (screen, U2OS, 37C, 2HR), 30.2 nM.
